These results are taken from paper PMC2275136.

The data set addresses p53 (purified recombinant) (UniProt P04637 1-393). Put plainly: EMSA. (Mobility shift assays separate free from complexed probe on a gel.)

Sequence of p53 (purified recombinant) (P04637 whole entry): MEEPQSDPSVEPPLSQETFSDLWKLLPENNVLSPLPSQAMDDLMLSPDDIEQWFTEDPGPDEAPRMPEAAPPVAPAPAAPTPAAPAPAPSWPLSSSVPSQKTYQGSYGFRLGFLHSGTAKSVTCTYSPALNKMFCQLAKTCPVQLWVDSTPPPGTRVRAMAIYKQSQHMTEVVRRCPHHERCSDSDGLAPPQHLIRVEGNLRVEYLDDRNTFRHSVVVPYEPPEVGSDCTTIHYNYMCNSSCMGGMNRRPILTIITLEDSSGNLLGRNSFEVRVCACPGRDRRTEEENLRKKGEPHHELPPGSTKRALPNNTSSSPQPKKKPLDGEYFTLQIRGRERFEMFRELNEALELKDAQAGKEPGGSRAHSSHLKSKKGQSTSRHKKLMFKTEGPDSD

B1: p21 promoter p53 consensus duplex (dsDNA)
DNA 1: TTGAACATGTCCCAACATGTTGA
DNA 2: TCAACATGTTGGGACATGTTCAA
B1: the binding result is listed as “binds”.
